Test results: patent CN118076384A (SPARKS BIOSCIENCE INC, dated 2024)
Residue numbers refer to the chain shown, from its start.

B1: 抗PDL1单克隆抗体12A4bad (antibody, V domains shown)
VH: QVQLVQSGAEVKKPGSSVKVSCKTSGDTFSTYAISWVRQAPGQGLEWMGGIIPLFGKAHYAQKFQGRVTITADESTSTAYMELSSLRSEDTAVYFCARKFHFVRGSPFGMDVWGQGTTVTVSS
VL: EIVLTQSPATLSLSPGERATLSCRASQSVSSYLAWYQQKPGQAPRLLIYDASNRAPGIPARFSGSGSGTDFTLTISSLEPEDFAVYYCQQRSNWPTFGQGTKVEIK
B2: 12A4bd (Fab displayed on phage) (Fab, V domains shown)
VH: B1 VH
VL: not shown
B3: 12A4bad (Fab displayed on phage) (Fab, V domains shown)
VH: B1 VH
VL: B1 VL
B4: 12A4a (Fab displayed on phage) (Fab, V domains shown)
VH: B1 VH with L54I, R104S
VL: B1 VL

Experiments:
[1] = molecular target: T1, PDL1 on MDA MB-231 human breast cancer cells (human, UniProt Q9NZQ7 19-290); test: flow cytometry on MDA MB-231 cells, anti-human IgG Fc secondary antibody
T1 construct: whole, on cells; also called 表达PD-L1的肿瘤细胞

[2] = molecular target: PDL1 on PDL1 aAPC/CHOK1 cells (UniProt Q9NZQ7 19-290, limits assumed); test: cell-based or functional assay
[3] = molecular target: T2, 人PD-L1 (recombinant protein of the phage ELISA) (human, UniProt Q9NZQ7 19-239, limits assumed); test: competitive phage ELISA, ratio to parental clone 12A4
T2 construct: also called CD274; B7同源物1

[4] = molecular target: T2, 人PD-L1 (recombinant protein of the …); test: competitive phage ELISA, Fab on phage, soluble PD-L1 against coated PD-L1

Row | Binder | Kd [1] [nM] | EC50 of luminescence in the PDL1/PD1 blockade bioassay [2] [nM] | 相对于12A4亲本克隆的改善 [3] [fold] | Kd [4] [nM]
1 | B1 | 0.0778 | 0.344 |  | 
2 | B2 |  |  | 6.3 | 1.8
3 | B3 |  |  | 7.5 | 1.5
4 | B4 |  |  | 1.3 | 8.3
